# The nanobody polyreactivity screen of Harvey et al. (2022)
# Assay: yeast display, Sf9 membrane polyspecificity reagent, FACS + sequencing; frameworks hold sequencing errors
# Outline: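 Using colony PCR, genes from sorted yeast display clones were amplified, then sequenced on MiSeq at 2 × 250 and filtered by CDR length. The clones had been stained with 10% biotinylated, detergent-solubilized Sf9 membrane reagent for 1 hour at 4 °C and sorted by FACS into low and high (top ~1%) gates on anti-HA and streptavidin fluorescence. Polyreactivity labels come from the gate of origin.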
row,Sequence,polyreactivity (PSR sort gate)
1,QVQRVESGGGIVQAGGTLRLSCAASLRIKDNVMGRYIQAHGKERELVAAITRSAGRTYYADSVKGRFTISRDNAKYTVYLQKNSLKPEDTALYYCAAHAERYGYEYWGQGTQVTVSS,low polyreactivity
2,QVQLVESGGGLVQAGGSLRLTCAASGYTLGYNAMGWYRKAPGKEMELVAAITIDGSTTYADSVKGRFTISRDNAKNTVYLLMNSLKPEDTAVYYCNAEGFTSDPYDSDYWGKGTQVTVSS,low polyreactivity
3,QVQLVESGGGLVQAGGSLRLSCAASGRTFARYAMGWYRQAPGKERELVAAITRGGSTKYADSVKGRFTISRDNAKNTVYLQMNSLKPEDTAVYYCNKVIVQYTLDRGYWGQGTQVTVSS,high polyreactivity
4,QVQLVESGGGLVQAGGSLRLSCAASGSIFAGNAMGWYRQAPGKERELVAAISWRGGSTYYADSVKGRFTISRDNAKNTVYLQMNSLKPEDTAVYYCAATWYDRRTFFYKYDYWGQGTQVTVSS,low polyreactivity
5,QVQLVESGGCLVQAGGSLSLSCAASGSTFPYPYTIGWYRQAPGKERELVAVISRTGGSTFYADSVKGRFTISRDNAKNTVFLQINSLKPEDTAVYYCARQRYEYRTTYYYWGLGTQVTVSS,high polyreactivity
6,QVQLVESGGGLVQAGGSLRLSCAASGSIFSYAMGWYRQAPGKERELVAAISRRGGRTYYADSVKGRFTISRDNEKYTVYLQMNSLKPEDTAVYYCAASGRNRKDGLYEYYYWGQGTQVTVSS,high polyreactivity
7,QVQLVESGGGLVQAGGSLRLSCAASGSIFGTNAMGGYRQAPGKERELVAAIRGSGGRTYYADSVKGRFTISRDKAKNTVYLEMNSLKPEDSAVYYCAAPGNPYCWGYNYYYWGQGTQVTVSS,high polyreactivity
8,QVQLVESGGGLVQAGGSLRLSCAASGLTFRRNTMGWYRQAPGKERELVATITSGGSTNYADSVKGRFTISRDNAKNTVYLQMNSLKPEDTAVYYCAARTTYITTWVYRHTYTYYYWGQGTQVTVSS,high polyreactivity
9,QVQLVESGGGLVQAGGSLRLSCAASGSTFALYAMGWYRQAPGKERELVASITLSGGRTYYADSVKGRFTISRDNAKNTVYLQMNSLKPEDTAVDYCNAEDYDWMDYWGQGTQVTVSS,high polyreactivity
10,QVQLVESGGGLVKAGGSLRLSCAASGFICVDYDRGGSRQAPGQERELVAAINWSGGSTDYADSVKGRFTISRDNAKNTVYLQMNSLKPEDTAVYYCGAEGQDCRFYWGLGTQVTVSS,low polyreactivity
11,QVQLVESGGGLVQAGGSLRLSCADSGRTFTKYAMGRYRQAPGKERELVAAISRSGGSTYYADSVKGRFTISRVNAKNTVYLQMNSLKPEDTAVYYCAARRYRASSRGYGYWGQGTQVTVSS,high polyreactivity
12,QVQLVESGGGLVQAGGSLRLSCAASGGNFERNAMGWYRQAPGKERELVAAITGSGGRTYYADSVKGRFTISRDNAKITVYLQMNSLKPEDTAVYFCAAVPWWKYKYWGQGTQVTVSS,high polyreactivity
13,QVQLVESGGGLVQAGGSLRLSCAASGSIFGTYAMGWYRQAPGKERELVARISGGGSTYYADSVKGRFTISRDNAKNTVYLQMNSLKPEDTAVYYCNVRKWAYCSHAIIYNYWGQGTQVTVSS,high polyreactivity
14,QVQLVESGGGLVQAGGSLRLSCAASGNTFNVYAMGWYRQAPGKERELVAAITLSGGSTYYADSVKGRFTFSRDNAKNTVYLQMNSLKPEDTAVYYCNAEDDGTDYDYWGQGTEVTVSS,low polyreactivity
15,QVQLVESGGGLVQAGGSLRLSCAASGRIFDFNAMGWYRQAPGKEREVVAAISSGGRTKYADSVKGRFTISRDNAKNTVYLQMNSLKPEDTAVYYCAASGSQPDDYWGQGTQVTVSS,high polyreactivity
16,QGQLVESGGGLVQAGGSLRLSCAASGITFPYYAMGWYRQAPGKERELVADITSGGSTNYADSVKGRFTISRDNAKNTVYLQMNSLKPDDTAVYYCAADWYVIYDYWGQGTQVTVSS,low polyreactivity
17,QVQLVESGGGLVQAGGSLRLTCAASGIIFQNYAMGWYRQAPGKERELVAGITGRGGITYYTDSVKGRFTISRDNAKNTVYVQMNSLKPEDTAVSSCAARRYRFAGDYRMYYWGQGTQVTVSS,high polyreactivity
18,QVQLVESGGGLVQAGGSLRLSCAASGRIFYYYPMGWYRQAPGKERELVADITRGGGTYYADSVKGRFTISRDNAKNTVYLQMNSLKPEDTAVYYCAKGGPPESHHPYRYRFDYWGQGTQVTVSS,low polyreactivity
19,QVQLVESGGGLVQAGGSLRLSCAASGFTFTRNAMGWYRQAPGKERFVAAITGSGASTYYADSVKGRFTISRDNAKNTVYLQMNSLKPEDTAVYYCNAEYYAGRYRYDYWGQGTQVTVSS,high polyreactivity
20,QVQLVESGGGLVQAGGSLRLSCAASGSIFRSYAMGWYRQAPGKERELVASISRRGGSTYYADSVKGRFTISRDNAKNSVYLQMNSLKPEDTAVYYCAAVRYNSRVSTTPSEMYYWGQGTQVTVSS,low polyreactivity
21,QVQLVESGGGLVQAGGSLRLSCAASGLIFHNNAMGWYRQAPGKERELVARITRSCGSTYYADSVKGRFTISRDNAKNTFYLQMNSLKPEDTAVYYCATDALFDSGGMDYWGQGTQVTVSS,low polyreactivity

row,Sequence,polyreactivity (PSR sort gate)
1,QVQLVESGGGLVQAGGSLSLSCAASGSTFVVNAMGWYRQAPGKERELVAAITQSGGSTFYADSVKGRFPISRDNAKNTVYLQMNSLKPEDTAVYYWGQGTQVTVSS,low polyreactivity
2,QVQIVESGGRLVQAGGSLRLSCAASGSIFVWYAMGWYRQAPGKERELVSRITSGGRTNYADSVKGRFTISRDNAKNTVYLQMNSLKPEDTAVYYCAAGRVSWSPYYYWGQATQVTVSS,high polyreactivity
3,QVQLVESGGCLVQAGGSLRLSCAASGSTFPIYAMGWYRQAPGKERELVARITWNGGRTYYADSVKGRFTISRDNAKNTVYLQMNSLKPEDTAVYYCNALYYHNLEGNYWGQGTQVTVSS,high polyreactivity
4,QGQRVESGGGLVQAGGSLRISCAASGRTVGRYVMGWYRQEPGKERELVARIRGSTTSTYYADSVKGRFTISRDNAKNTVYLQMNSLKAEDTAVYYCAASYSPFASSYSYDYWGQGTQVTVSS,high polyreactivity
5,QVQLVESGGGLVQAGGSLRLSCAASGLTFYVNAMGWYRQAPGKEMELVAAITRGGSTNYADSVKGRFTISRDNAKNTVYLQMNSLKPVDTAVYYCNARKRYHSRYSGGYREGYWGQGTQVTVSS,low polyreactivity
6,QVQLVESGGGLVQAGGSLRLSCAASGFIFPVNAMGWSRQAPGKERELVAGITSSGGSTYYADSVKGRFTISRDNAKNTVYLQMNSRKPEDTAVYYCNAYIDALPVSYHFDYWGQGTQLTVSS,low polyreactivity
7,QVQLVESGGGLVQARGSLRLSCAASGGNISYNAMGRYRQAPGKEREFVASISSSGGRTYYADSVKGRFTISRDNAKNTVYLQMNSLKPEDTAVFYCNADAQVEYGLFGQGWVTSFDYWGEGTQVTVSS,low polyreactivity
8,QVQLVESGGGLVQAGGSLRLSSAASGSILWQYAMGWYRQAPGKERELVAAITYSGGSTHYADSVKGRFTISRDNAKNTVYLQMNSLKPEDTAVYYCAAGYWSRYAALRYDHWGQGTQVTVSS,low polyreactivity
9,QVQRVESGGGLVQAGGSLRLSCAASGRIFVAYVMGWYRQAPGKERELVAAITRSGGRTYYADSVKGRFTISRDNAKNTVYLQMNSLKPEDTAVYYCATDSGWSTYDYWGQGTQVSVSS,high polyreactivity
10,QVQLVESGGGLVQAGGSLRLSCAASGIIFYGYAMGWYRQAPGKERELVAAITYSGGSTYYADSVKGRFTISRDNAKNTVYLQMNSLKPEDTEVYYCAAYDAYSPYQALYDYWGQGTQVTVSS,low polyreactivity
11,QVQRVESGGRLVQAGGSLRLSCAACGSTFPGNAMGWYRQAPGKERELVAAISSSGGSTDYADSVKGRFTCSRDNAKNTVYLQLNRLKPEDTAVYSCATKYRFCTYRDIAYPYDYWGQGPQVTVSS,low polyreactivity
12,QVQLVESGGGLLQAGGSLRLSCASSGSTFGGNAMGRYRQAPGKERELVAAITVGGDSTYYADSVKGRFTISRDNAKNTVYLQMNSLKPEDTAVYYCNASNVYFWFVTLEFDYWGQGTQVTVSS,low polyreactivity
13,QVQLVESGGGLVQAGGSLRLSCAASGFIFSYYAMGGYRQAPGKERELVAAITSGGSTNYADSVKGRLTISRDNAKNTFYLQMNSLKPEDTAVYYCAAERGDTAYLKYDYCGQGTQVTVSS,low polyreactivity
14,QVQLVESGGGLVQAGGSLRLSCAASGSIFRYNAMGWYRQAPGKERELVAAISSGGSTKYADSVKGRFTISRDNAKKTVYLQMNSLKPEDTAVYYCVARRARYDYWGQGTQVTVSS,high polyreactivity
15,QVQLVESGGGLVQAGGSLRLSCAASGRTFNAYAMGWYRHAPGKERELVAAISSGGSTYYADSVKGRFTISRDNAKNTVYLLMNSLKPEDTAVYYCNKVYGWRQFDYWGQGTQVTVSS,high polyreactivity
16,QVQLVESGGGLVQAGGRLRLSCAASGFIFRPYAMGWYRQAPGKERELVPTISYRGGSTDYADSVKGRFTISRDNAKNTVYLQMNSLKPEDTAVYYCNAGYNRGYYYPVFAFFPYEYWGQGTQVTVSS,low polyreactivity
17,QVQLVESGGGLVQAGGSLRLSCAASGRTFYYNAMGGYRPAPGKERELVATITWTGDSTYADSVKGRFTISRDNAKNTVYLQMISLKPEDTAVYYCAAGKPVILTGDYDYWGQGTQVTVSS,low polyreactivity
18,QVQLVESGGGLVQAGGSLRLSCAASGSTFYIYAIGLYRQAPGKERELVAAINWRTGSTYYADSVMGRFTISRDNAKNTVYLQMNSLKPEDTAVYYWNAYTQHWSYWGQGTQVTVSS,high polyreactivity
19,QVQLVESGGGLVQAGGSLRLSCAASGSISFLYTMGWYRQAPGKERELVAAITGSTASTYYADSVKGCFTISRDNAKNTVYLQMNSLKPEDTAVYYCAAYWYAEGYWVSRDYWGQGTQVTVSS,low polyreactivity
20,QVQLVESGGGLVQAGGSLRLSCAASGNTINKYAMGWYRQAPGKERELVAAITRSGGSTYYADSVKGRFTISRDKAKNTVYLQMNSLKPEDTAVYYCAAAYWILYYPIDQAFDYWGQGTQVTVSS,low polyreactivity
